Data reported in paper PMC3961392 (PLoS Pathogens, 2014).

Key:
[1] = biological target: the molecule itself; experiment: SEC; 10-15 µg of purified enzyme (low enzyme concentration) on a 10 mL Superdex 200 column; 50 mM Tris pH 7.5, 200 mM NaCl; masses and oligomerization states from a Bio-Rad gel filtration standard curve
[2] = biological target: the molecule itself; experiment: SEC; data not shown; oligomerization state of the mutant enzymes, method as told for the A3 enzymes (Superdex 200, 50 mM Tris pH 7.5, 200 mM NaCl)

Row | Protein | stoichiometry N [1] | stoichiometry N [2]
1 | APOBEC3F (enzyme, human, UniProt Q8IUX4 1-373, looked up, also called A3F; not shown: GST, N-terminal, cleaved) MKPHFRNTVERMYRDTFSYNFYNRPILSRRNTVWLCYEVKTKGPSRPRLDAKIFRGQVYSQPEHHAEMCFLSWFCGNQLPAYKCFQITWFVSWTPCPDCVAKLAEFLAEHPNVTLTISAARLYYYWERDYRRALCRLSQAGARVKIMDDEEFAYCWENFVYSEGQPFMPWYKFDDNYAFLHRTLKEILRNPMEAMYPHIFYFHFKNLRKAYGRNESWLCFTMEVVKHHSPVSWKRGVFRNQVDPETHCHAERCFLSWFCDDILSPNTNYEVTWYTSWSPCPECAGEVAEFLARHSNVNLTIFTARLYYFWDTDYQEGLRSLSQEGASVEIMGYKDFKYCWENFVYNDDEPFKPWKGLKYNFLFLDSKLQEILE | 4 | 
2 | APOBEC3F NGM mutant (enzyme, human, UniProt Q8IUX4 1-373, looked up, also called A3F NGM; A3F 190NGM192; not shown: GST, N-terminal, cleaved) MKPHFRNTVERMYRDTFSYNFYNRPILSRRNTVWLCYEVKTKGPSRPRLDAKIFRGQVYSQPEHHAEMCFLSWFCGNQLPAYKCFQITWFVSWTPCPDCVAKLAEFLAEHPNVTLTISAARLYYYWERDYRRALCRLSQAGARVKIMDDEEFAYCWENFVYSEGQPFMPWYKFDDNYAFLHRTLKEILRNGMEAMYPHIFYFHFKNLRKAYGRNESWLCFTMEVVKHHSPVSWKRGVFRNQVDPETHCHAERCFLSWFCDDILSPNTNYEVTWYTSWSPCPECAGEVAEFLARHSNVNLTIFTARLYYFWDTDYQEGLRSLSQEGASVEIMGYKDFKYCWENFVYNDDEPFKPWKGLKYNFLFLDSKLQEILE |  | 4
